Results: paper PMC9177957 (Nucleic Acids Research, 2022)

B1: GST-tagged full-length human ANP32A (natural protein)
chain: MEMGRRIHLELRNRTPSDVKELVLDNSRSNEGKLEGLTDEFEELEFLSTINVGLTSIANLPKLNKLKKLELSDNRVSGGLEVLAEKCPNLTHLNLSGNKIKDLSTIEPLKKLENLKSLDLFNCEVTNLNDYRENVFKLLPQLTYLDGYDRDDKEAPDSDAEGYVEGLDDEEEDEDEEEYDEDAQVVEDEEDEDEEEEGEEEDVSGEEEEDEEGYNDGEVDDEEDEEELGEEERGQKRKREPEDEGEDDD
notes: also called GST-huANP32A; huANP32A WT; source: E. coli, purified (Glutathione Sepharose, eluted with reduced glutathione); not shown: GST, N-terminal, kept
B2: GST-tagged full-length human ANP32B (natural protein)
chain: MDMKRRIHLELRNRTPAAVRELVLDNCKSNDGKIEGLTAEFVNLEFLSLINVGLISVSNLPKLPKLKKLELSENRIFGGLDMLAEKLPNLTHLNLSGNKLKDISTLEPLKKLECLKSLDLFNCEVTNLNDYRESVFKLLPQLTYLDGYDREDQEAPDSDAEVDGVDEEEEDEEGEDEEDEDDEDGEEEEFDEEDDEDEDVEGDEDDDEVSEEEEEFGLDEEDEDEDEDEEEEEGGKGEKRKRETDDEGEDD
notes: also called GST-huANP32B; huANP32B WT; source: E. coli, purified (Glutathione Sepharose, eluted with reduced glutathione); not shown: GST, N-terminal, kept

Biological target: T1, wildtype NP of influenza A/NT/60/1968 (H3N2) virus (influenza A/NT/60/1968 (H3N2) virus, UniProt P03467 1-498)
T1 construct: not shown: GST, N-terminal, cleaved
Experiment: pull-down
Conditions: both partners purified

Binder	binding result
B1	binds
B2	binds
